For one data set, the target named is thrombin (UniProt P00734;P00734 328-363;364-622). The experiment in a line: strand-displacement release of rhodamine 6G from gated NMOFs (fluorescence); thrombin 0.25-1 uM; 10 mM KCl, 10 mM MgCl2; competes with anchor strand (1); 10 mM HEPES pH 7.4, 20 mM NaCl, 10 mM KCl, 10 mM MgCl2; 30 min; temperature not stated.
In data set [1] the target is vascular endothelial growth factor 165 (VEGF) (human, UniProt P15692-4 27-191). The experiment in a line: strand-displacement release of rhodamine 6G and Apixaban from gated NMOFs (fluorescence); 1 uM protein; background release only; 10 mM HEPES pH 7.4, 20 mM NaCl, 10 mM KCl, 10 mM MgCl2; 30 min; temperature not stated. Conditions: protein: commercial; chain copies: 2; label: none on DNA; read-out is released rhodamine 6G or Apixaban fluorescence; 11 bp duplex, 5' overhang 8 nt on aptamer strand.
Sequence of vascular endothelial growth factor 165 (VEGF) (P15692 other isoform, or with tags, fused parts or gaps): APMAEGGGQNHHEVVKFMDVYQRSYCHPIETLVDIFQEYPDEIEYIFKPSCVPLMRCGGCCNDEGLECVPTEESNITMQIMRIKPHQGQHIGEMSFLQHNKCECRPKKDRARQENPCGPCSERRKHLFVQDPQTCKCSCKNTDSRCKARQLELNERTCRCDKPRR

B1: thrombin aptamer (2) hybridized to anchor (1) on UiO-68 NMOFs (mixed)
DNA: GGTTGGTGTGGTTGGTTTT
?: AAAACCAACCA
modifications: strand 2 (anchor): 5'-NH2-(CH2)6, DBCO-modified, clicked to azide-functionalized UiO-68 NMOF
With B1, the figures for the binding result (with thrombin; in data set [1]) were “binds” and “no binding”, respectively.

Values taken from PMC6929137, “Thrombin Aptamer-Modified Metal–Organic Framework Nanoparticles: Functional Nanostructures for Sensing Thrombin and the Triggered Controlled Release of Anti-Blood Clotting Drugs”.
